# Numbering of substitutions follows the chain as printed.
# T1: VEGFR-3-Fc (UniProt P35916 25-328)
# T1 construct: domain: first three Ig domains; conditioned supernatant of 293T cells; also called VEGFR-3-Fc fusion protein; not shown: Fc fragment of the pIg vector
# T1 sequence (looked up): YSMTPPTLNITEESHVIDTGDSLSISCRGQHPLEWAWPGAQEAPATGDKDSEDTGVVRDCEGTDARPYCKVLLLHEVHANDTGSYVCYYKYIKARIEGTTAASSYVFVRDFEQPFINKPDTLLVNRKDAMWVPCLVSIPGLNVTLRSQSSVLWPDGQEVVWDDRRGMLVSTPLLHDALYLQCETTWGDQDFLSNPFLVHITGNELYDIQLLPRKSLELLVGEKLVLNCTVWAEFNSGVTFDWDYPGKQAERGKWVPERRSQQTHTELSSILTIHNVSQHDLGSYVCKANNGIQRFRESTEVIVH
# B1: 73-7 (ligand)
# chain: GQNHHEVVKSIDNEWRKTQCMPREVCIDVGKEYPDEIEYIFKPPCVSVYRCGGCCNSEGLQCVPTEESNITMQIMRIKPHQGQHIGEMSFANHTSCRCMSKLD
# B2: 82-9 (ligand)
# chain: AHYNTEILKFMDVYQRSYCHPIETLVDIFQEFGVATNTFFKPPCVSVYRCGGCCNDEGLECVPTEESNITMQIMRITVPLSQGPKPVTISFLQHNKCECRPKKDL
# notes: clone entry
# B3: 82-13 (ligand)
# chain: B2 chain with L92A, Q93N, N95T, K96S, E98R, R100M, P101S, K103L
# notes: clone entry
# B4: 14-9 (ligand)
# chain: GQNHHEVVKFMDVYQRSYCHPIETLVDIFQEFGVATNTFFKPSCVPLMRCGGCCNDEGLECVPTEESNITMQIMRITVPLSQGPKPVTISFLQHNKCECRPKKDL
# notes: clone entry
# B5: 84-11 (ligand)
# chain: B2 chain with P43S, S46P, V47L, Y48M, D56S, E60Q
# notes: clone entry
# B6: 82-11 (ligand)
# chain: B2 chain with D56S, E60Q
# notes: clone entry
# B7: 84-9 (ligand)
# chain: B2 chain with P43S, S46P, V47L, Y48M
# notes: clone entry
# B8: 74-10 (ligand)
# chain: GQNHHEVVKSIDNEWRKTQCMPREVCIDVGKEFGVATNTFFKPSCVPLMRCGGCCNDEGLECMNTSTSYLSKTLFEITVPLSQGPKPVTISFLQHNKCECRPKKD
# B9: 74-12 (ligand)
# chain: B8 chain with D57S, E61Q
# B10: 74-8 (ligand)
# chain: GQNHHEVVKSIDNEWRKTQCMPREVCIDVGKEFGVATNTFFKPSCVPLMRCGGCCNSEGLQCMNTSTSYLSKTLFEIKPHQGQHIGEMSFANHTSCRCMSKLD
# B11: 12-5 (ligand)
# chain: GQNHHEVVKFMDVYQRSYCHPIETLVDIFQEFGVATNTFFKPPCVSVYRCGGCCNDEGLECVPTEESNITMQIMRIKPHQGQHIGEMSFANHTSCRCMSKLDLVF
# B12: 82-7 (ligand)
# chain: B11 chain with G1A, Q2H, N3Y, H4N, H5T, V7I, V8L, D56S, E60Q
# notes: clone entry
# B13: 12-1 (ligand)
# chain: B11 chain with A90L, N91Q, T93N, S94K, R96E, M98R, S99P, L101K
# B14: 43-13 (ligand)
# chain: AHYNTEILKFMDVYQRSYCHPREVCIDVGKEYPDEIEYIFKPPCVSVYRCGGCCNDEGLECVPTEESNITMQIMRITVPLSQGPKPVTISFANHTSCRCMSKLD
# B15: 63-9 (ligand)
# chain: GQNHHEVVKFMDVYQRSYCHPREVCIDVGKEYPDEIEYIFKPPCVSVYRCGGCCNDEGLECVPTEESNITMQIMRITVPLSQGPKPVTISFLQHNKCECRPKKD
# B16: 62-13 (ligand)
# chain: GQNHHEVVKFMDVYQRSYCHPREVCIDVGKEFGVATNTFFKPPCVSVYRCGGCCNDEGLECVPTEESNITMQIMRITVPLSQGPKPVTISFANHTSCRCMSKLD
# B17: 82-5 (ligand)
# chain: AHYNTEILKFMDVYQRSYCHPIETLVDIFQEFGVATNTFFKPPCVSVYRCGGCCNDEGLECVPTEESNITMQIMRIKPHQGQHIGEMSFANHTSCRCMSKLD
# B18: 63-1 (ligand)
# chain: GQNHHEVVKFMDVYQRSYCHPREVCIDVGKEYPDEIEYIFKPPCVSVYRCGGCCNDEGLECVPTEESNITMQIMRIKPHQGQHIGEMSFLQHNKCECRPKKD
# B19: 71-11 (ligand)
# chain: GQNHHEVVKSIDNEWRKTQCMPREVCIDVGKEYPDEIEYIFKPSCVPLMRCGGCCNSEGLQCVPTEESNITMQIMRITVPLSQGPKPVTISFLQHNKCECRPKKD
# B20: 71-15 (ligand)
# chain: B19 chain with L93A, Q94N, N96T, K97S, E99R, R101M, P102S, K104L
# B21: 23-11 (ligand)
# chain: AHYNTEILKSIDNEWRKTQCMPREVCIDVGKEYPDEIEYIFKPPCVSVYRCGGCCNSEGLQCVPTEESNITMQIMRITVPLSQGPKPVTISFLQHNKCECRPKKD
# B22: 74-11 (ligand)
# chain: B19 chain with Y33F, P34G, D35V, E36A, I37T, E38N, Y39T, I40F
# B23: 73-15 (ligand)
# chain: GQNHHEVVKSIDNEWRKTQCMPREVCIDVGKEYPDEIEYIFKPPCVSVYRCGGCCNSEGLQCVPTEESNITMQIMRITVPLSQGPKPVTISFANHTSCRCMSKLD
# B24: 31-11 (ligand)
# chain: B19 chain with R23I, V25T, C26L, I27V, V29I, G30F, K31Q
# B25: 33-11 (ligand)
# chain: GQNHHEVVKSIDNEWRKTQCMPIETLVDIFQEYPDEIEYIFKPPCVSVYRCGGCCNSEGLQCVPTEESNITMQIMRITVPLSQGPKPVTISFLQHNKCECRPKKD
# B26: 21-11 (ligand)
# chain: B21 chain with P44S, S47P, V48L, Y49M
# B27: 71-13 (ligand)
# chain: B23 chain with P44S, S47P, V48L, Y49M, S57D, Q61E
# B28: 31-3 (ligand)
# chain: B25 chain with P44S, S47P, V48L, Y49M, S57D, Q61E
# B29: 22-16 (ligand)
# chain: AHYNTEILKSIDNEWRKTQCMPREVCIDVGKEFGVATNTFFKPPCVSVYRCGGCCNSEGLQCMNTSTSYLSKTLFEITVPLSQGPKPVTISFANHTSCRCMSKLDLVFEQKLISEEDLNSAVDHHHHHH
# Molecular target: T2, VEGFR-2-Fc (UniProt P35968 20-322)
# T2 construct: domain: first 3 Ig domains; conditioned supernatant of 293T cells; also called VEGFR-2-Fc fusion protein; not shown: Fc fragment of the pIg vector
# T2 sequence (P35968 20-322): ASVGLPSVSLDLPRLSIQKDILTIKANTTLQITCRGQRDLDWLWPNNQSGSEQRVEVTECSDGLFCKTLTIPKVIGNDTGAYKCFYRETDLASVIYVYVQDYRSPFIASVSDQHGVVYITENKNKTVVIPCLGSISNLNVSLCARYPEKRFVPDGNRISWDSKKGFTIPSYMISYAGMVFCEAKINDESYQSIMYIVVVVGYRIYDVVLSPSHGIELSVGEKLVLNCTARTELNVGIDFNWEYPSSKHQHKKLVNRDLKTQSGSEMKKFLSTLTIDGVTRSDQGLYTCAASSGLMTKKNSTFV
# Experiment: receptor-Fc IP
# Summary of the method: (§1)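 fusion protein at 400 ng/ml in an IP mix (PBS, 1.5% BSA, 0.06% Tween 20, 3 μg/ml heparin) was combined with sample supernatant at a 1:2 ratio. Bound ligand captured by immunoprecipitation with pentahistidine antibody.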
row,binding result,Binder
1,binds,B1
2,binds,B2
3,no binding,B3
4,binds,B4
5,binds,B5
6,binds,B6
7,binds,B7
8,binds,B8
9,binds,B9
10,binds,B10
11,no binding,B11
12,binds,B12
13,binds,B13
14,no binding,B14
15,no binding,B15
16,binds,B16
17,no binding,B17
18,binds,B18
19,no binding,B19
20,no binding,B20
21,no binding,B21
22,no binding,B22
23,binds,B23
24,no binding,B24
25,no binding,B25
26,no binding,B26
27,no binding,B27
28,no binding,B28
29,binds,B29

# Molecular target: T1, VEGFR-3-Fc
# Experiment: receptor-Fc IP
# Summary of the method: as §1
row,binding result,Binder
1,no binding,B1
2,binds,B2
3,binds,B3
4,binds,B4
5,binds,B5
6,binds,B6
7,binds,B7
8,no binding,B8
9,no binding,B9
10,no binding,B10
11,no binding,B11
12,binds,B12
13,binds,B13
14,no binding,B14
15,no binding,B15
16,no binding,B16
17,no binding,B17
18,no binding,B18
19,no binding,B19
20,no binding,B20
21,no binding,B21
22,no binding,B22
23,no binding,B23
24,no binding,B24
25,no binding,B25
26,no binding,B26
27,no binding,B27
28,no binding,B28
29,binds,B29

# Molecular target: T3, VEGFR-1-Fc (UniProt P17948 27-338)
# T3 construct: domain: first three Ig domains; expressed in Drosophila S2 cells, purified on Protein A sepharose; also called VEGFR-1-Fc fusion protein; not shown: Fc fragment from the Signal-pIgPlus vector
# T3 sequence (P17948 27-338): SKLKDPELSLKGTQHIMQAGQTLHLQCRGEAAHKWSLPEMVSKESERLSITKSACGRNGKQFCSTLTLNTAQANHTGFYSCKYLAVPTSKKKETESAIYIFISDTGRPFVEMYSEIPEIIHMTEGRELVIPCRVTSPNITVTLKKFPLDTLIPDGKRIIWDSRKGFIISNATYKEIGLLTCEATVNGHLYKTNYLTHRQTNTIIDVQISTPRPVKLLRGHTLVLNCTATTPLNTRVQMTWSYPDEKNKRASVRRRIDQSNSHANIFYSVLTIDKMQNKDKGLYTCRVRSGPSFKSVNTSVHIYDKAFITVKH
# Experiment: receptor-Fc IP
# Summary of the method: as §1
row,binding result,Binder
1,no binding,B1
2,binds,B2
3,binds,B3
4,binds,B4
5,binds,B5
6,binds,B6
7,binds,B7
8,no binding,B8
9,no binding,B9
10,no binding,B10
11,binds,B11
12,binds,B12
13,binds,B13
14,no binding,B14
15,no binding,B15
16,no binding,B16
17,binds,B17
18,binds,B18
19,no binding,B19
20,no binding,B20
21,no binding,B21
22,no binding,B22
23,no binding,B23
24,no binding,B24
25,no binding,B25
26,no binding,B26
27,no binding,B27
28,no binding,B28
29,no binding,B29

# From patent publication US20080058263A1 (published 2008)
